In test [1] the target is T1, human CD19 on Nalm6 B cells (human, UniProt P15391 20-556).
T1 sequence: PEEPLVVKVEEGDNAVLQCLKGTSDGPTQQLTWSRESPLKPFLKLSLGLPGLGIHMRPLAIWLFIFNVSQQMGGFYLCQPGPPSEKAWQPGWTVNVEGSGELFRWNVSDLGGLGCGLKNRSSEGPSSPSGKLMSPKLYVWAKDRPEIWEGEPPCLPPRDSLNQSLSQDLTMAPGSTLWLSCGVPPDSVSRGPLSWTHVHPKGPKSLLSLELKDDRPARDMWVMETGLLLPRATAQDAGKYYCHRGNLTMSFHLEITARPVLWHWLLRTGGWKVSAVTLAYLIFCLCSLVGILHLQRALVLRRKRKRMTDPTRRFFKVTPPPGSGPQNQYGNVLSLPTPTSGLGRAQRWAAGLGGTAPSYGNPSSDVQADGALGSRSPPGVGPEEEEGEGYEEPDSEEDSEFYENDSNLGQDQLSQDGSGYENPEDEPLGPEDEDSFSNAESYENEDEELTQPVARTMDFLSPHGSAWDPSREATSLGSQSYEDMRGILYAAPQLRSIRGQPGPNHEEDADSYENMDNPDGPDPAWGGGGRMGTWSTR
Kind of test: flow cytometry on Nalm6 cells. (In general: In flow cytometry, cells or beads pass a laser one at a time.)

The target of test [2] is T2, human CD28 expressed on cells (CHO-k1 stably overexpressing human CD28; T cells in functional assays) (human, UniProt P10747 19-220).
T2 construct: also called CHO huCD28; CHOk1-CD28
Kind of test: flow cytometry on CHOk1-CD28 cells.

Test [3] concerns the target T2, human CD28 expressed on cells (CHO-k1 …). The test can be described thus: cell-based or functional assay.

One may read the EC50 as the concentration that produces a half-maximal response. A higher EC50 goes with a need for much substance.

B1: Molecule 18C: CD19 (8B8-2B11)-CD28 (SA v8) 1+1 (bispecific antibody, human IgG1, kappa, L234A L235A)
heavy 1: not shown
heavy 2: DIVMTQTPLSLSVTPGQPASISCKSSQSLETSTGTTYLNWYLQKPGQSPQLLIYRVSKRFSGVPDRFSGSGSGTDFTLKISRVEAEDVGVYYCLQLLEDPYTFGQGTKLEIKSSASTKGPSVFPLAPSSKSTSGGTAALGCLVKDYFPEPVTVSWNSGALTSGVHTFPAVLQSSGLYSLSSVVTVPSSSLGTQTYICNVNHKPSNTKVDKKVEPKSCDKTHTCPPCPAPEAAGGPSVFLFPPKPKDTLMISRTPEVTCVVVDVSHEDPEVKFNWYVDGVEVHNAKTKPREEQYNSTYRVVSVLTVLHQDWLNGKEYKCKVSNKALGAPIEKTISKAKGQPREPQVCTLPPSRDELTKNQVSLSCAVKGFYPSDIAVEWESNGQPENNYKTTPPVLDSDGSFFLVSKLTVDKSRWQQGNVFSCSVMHEALHNHYTQKSLSLSP
light 1: not shown
light 2: QVQLVQSGAEVKKPGASVKVSCKASGYTFTDYIMHWVRQAPGQGLEWMGYINPYNDGSKYTEKFQGRVTMTSDTSISTAYMELSRLRSDDTAVYYCARGTYYYGPQLFDYWGQGTTVTVSSASVAAPSVFIFPPSDEQLKSGTASVVCLLNNFYPREAKVQWKVDNALQSGNSQESVTEQDSKDSTYSLSSTLTLSKADYEKHKVYACEVTHQGLSSPVTKSFNRGEC
notes: also called P1AF0175; CD19-CD28 v8
In the case of B1, the EC50 in test [1] is 0.232 nM; in test [2], 232 nM.

B2: Molecule 18A: CD19 (8B8-2B11)-CD28 (SA v29) 1+1 (bispecific antibody, human IgG1, kappa, L234A L235A)
heavy 1: not shown
heavy 2: DIVMTQTPLSLSVTPGQPASISCKSSQSLETSTGTTYLNWYLQKPGQSPQLLIYRVSKRFSGVPDRFSGSGSGTDFTLKISRVEAEDVGVYYCLQLLEDPYTFGQGTKLEIKSSASTKGPSVFPLAPSSKSTSGGTAALGCLVKDYFPEPVTVSWNSGALTSGVHTFPAVLQSSGLYSLSSVVTVPSSSLGTQTYICNVNHKPSNTKVDKKVEPKSCDKTHTCPPCPAPEAAGGPSVFLFPPKPKDTLMISRTPEVTCVVVDVSHEDPEVKFNWYVDGVEVHNAKTKPREEQYNSTYRVVSVLTVLHQDWLNGKEYKCKVSNKALGAPIEKTISKAKGQPREPQVCTLPPSRDELTKNQVSLSCAVKGFYPSDIAVEWESNGQPENNYKTTPPVLDSDGSFFLVSKLTVDKSRWQQGNVFSCSVMHEALHNHYTQKSLSLSP
light 1: not shown
light 2: QVQLVQSGAEVKKPGASVKVSCKASGYTFTDYIMHWVRQAPGQGLEWMGYINPYNDGSKYTEKFQGRVTMTSDTSISTAYMELSRLRSDDTAVYYCARGTYYYGPQLFDYWGQGTTVTVSSASVAAPSVFIFPPSDEQLKSGTASVVCLLNNFYPREAKVQWKVDNALQSGNSQESVTEQDSKDSTYSLSSTLTLSKADYEKHKVYACEVTHQGLSSPVTKSFNRGEC
notes: also called P1AE8002; CD19-CD28 v29
In the case of B2, the results for the EC50 in test [1] and in test [2] were 0.274 nM and 6.65 nM, respectively.

B3: Molecule 18B: CD19 (8B8-2B11)-CD28 (SA v15) 1+1 (bispecific antibody, human IgG1, kappa, L234A L235A)
heavy 1: not shown
heavy 2: DIVMTQTPLSLSVTPGQPASISCKSSQSLETSTGTTYLNWYLQKPGQSPQLLIYRVSKRFSGVPDRFSGSGSGTDFTLKISRVEAEDVGVYYCLQLLEDPYTFGQGTKLEIKSSASTKGPSVFPLAPSSKSTSGGTAALGCLVKDYFPEPVTVSWNSGALTSGVHTFPAVLQSSGLYSLSSVVTVPSSSLGTQTYICNVNHKPSNTKVDKKVEPKSCDKTHTCPPCPAPEAAGGPSVFLFPPKPKDTLMISRTPEVTCVVVDVSHEDPEVKFNWYVDGVEVHNAKTKPREEQYNSTYRVVSVLTVLHQDWLNGKEYKCKVSNKALGAPIEKTISKAKGQPREPQVCTLPPSRDELTKNQVSLSCAVKGFYPSDIAVEWESNGQPENNYKTTPPVLDSDGSFFLVSKLTVDKSRWQQGNVFSCSVMHEALHNHYTQKSLSLSP
light 1: not shown
light 2: QVQLVQSGAEVKKPGASVKVSCKASGYTFTDYIMHWVRQAPGQGLEWMGYINPYNDGSKYTEKFQGRVTMTSDTSISTAYMELSRLRSDDTAVYYCARGTYYYGPQLFDYWGQGTTVTVSSASVAAPSVFIFPPSDEQLKSGTASVVCLLNNFYPREAKVQWKVDNALQSGNSQESVTEQDSKDSTYSLSSTLTLSKADYEKHKVYACEVTHQGLSSPVTKSFNRGEC
notes: also called P1AE9040; CD19-CD28 v15
With B3, the values for the EC50 in test [1] and in test [2] were 0.416 nM and 15.6 nM, respectively.

B4: FAP (4B9) - CD28 (CD28(SA)_Variant 11) 1+1 (bispecific antibody, human IgG1, kappa, L234A L235A)
heavy 1: EIVLTQSPGTLSLSPGERATLSCRASQSVTSSYLAWYQQKPGQAPRLLINVGSRRATGIPDRFSGSGSGTDFTLTISRLEPEDFAVYYCQQGIMLPPTFGQGTKVEIKSSASTKGPSVFPLAPSSKSTSGGTAALGCLVKDYFPEPVTVSWNSGALTSGVHTFPAVLQSSGLYSLSSVVTVPSSSLGTQTYICNVNHKPSNTKVDKKVEPKSCDKTHTCPPCPAPEAAGGPSVFLFPPKPKDTLMISRTPEVTCVVVDVSHEDPEVKFNWYVDGVEVHNAKTKPREEQYNSTYRVVSVLTVLHQDWLNGKEYKCKVSNKALGAPIEKTISKAKGQPREPQVCTLPPSRDELTKNQVSLSCAVKGFYPSDIAVEWESNGQPENNYKTTPPVLDSDGSFFLVSKLTVDKSRWQQGNVFSCSVMHEALHNHYTQKSLSLSP
light 1: EVQLLESGGGLVQPGGSLRLSCAASGFTFSSYAMSWVRQAPGKGLEWVSAIIGSGASTYYADSVKGRFTISRDNSKNTLYLQMNSLRAEDTAVYYCAKGWFGGFNYWGQGTLVTVSSASVAAPSVFIFPPSDEQLKSGTASVVCLLNNFYPREAKVQWKVDNALQSGNSQESVTEQDSKDSTYSLSSTLTLSKADYEKHKVYACEVTHQGLSSPVTKSFNRGEC
heavy 2: not shown
light 2: not shown
Regarding B4, the “EC50 killing (nM), TCB-mediated killing of MV3 target cells” value (“EC50 killing (nM), TCB-mediated killing” for short) in test [3] worked out at 1.73 nM.

B5: FAP (4B9) - CD28 (CD28(SA)_Variant 12) 1+1 (bispecific antibody, human IgG1, kappa, L234A L235A)
heavy 1: EIVLTQSPGTLSLSPGERATLSCRASQSVTSSYLAWYQQKPGQAPRLLINVGSRRATGIPDRFSGSGSGTDFTLTISRLEPEDFAVYYCQQGIMLPPTFGQGTKVEIKSSASTKGPSVFPLAPSSKSTSGGTAALGCLVKDYFPEPVTVSWNSGALTSGVHTFPAVLQSSGLYSLSSVVTVPSSSLGTQTYICNVNHKPSNTKVDKKVEPKSCDKTHTCPPCPAPEAAGGPSVFLFPPKPKDTLMISRTPEVTCVVVDVSHEDPEVKFNWYVDGVEVHNAKTKPREEQYNSTYRVVSVLTVLHQDWLNGKEYKCKVSNKALGAPIEKTISKAKGQPREPQVCTLPPSRDELTKNQVSLSCAVKGFYPSDIAVEWESNGQPENNYKTTPPVLDSDGSFFLVSKLTVDKSRWQQGNVFSCSVMHEALHNHYTQKSLSLSP
light 1: EVQLLESGGGLVQPGGSLRLSCAASGFTFSSYAMSWVRQAPGKGLEWVSAIIGSGASTYYADSVKGRFTISRDNSKNTLYLQMNSLRAEDTAVYYCAKGWFGGFNYWGQGTLVTVSSASVAAPSVFIFPPSDEQLKSGTASVVCLLNNFYPREAKVQWKVDNALQSGNSQESVTEQDSKDSTYSLSSTLTLSKADYEKHKVYACEVTHQGLSSPVTKSFNRGEC
heavy 2: not shown
light 2: DIQMTQSPSSLSASVGDRVTITCRASQNIYVWLNWYQQKPGKAPKLLIYKASNLYSGVPSRFSGSRSGTDFTLTISSLQPEDFATYYCQQGQTYPYTFGQGTKLEIKRTVAAPSVFIFPPSDRKLKSGTASVVCLLNNFYPREAKVQWKVDNALQSGNSQESVTEQDSKDSTYSLSSTLTLSKADYEKHKVYACEVTHQGLSSPVTKSFNRGEC
Take B5: the “EC50 killing (nM), TCB-mediated killing” value in test [3] turned out to be 0.98 nM.

B6: FAP (4B9) - CD28 (CD28(SA)_Variant 29) 1+1 (bispecific antibody, human IgG1, kappa, L234A L235A)
heavy 1: EIVLTQSPGTLSLSPGERATLSCRASQSVTSSYLAWYQQKPGQAPRLLINVGSRRATGIPDRFSGSGSGTDFTLTISRLEPEDFAVYYCQQGIMLPPTFGQGTKVEIKSSASTKGPSVFPLAPSSKSTSGGTAALGCLVKDYFPEPVTVSWNSGALTSGVHTFPAVLQSSGLYSLSSVVTVPSSSLGTQTYICNVNHKPSNTKVDKKVEPKSCDKTHTCPPCPAPEAAGGPSVFLFPPKPKDTLMISRTPEVTCVVVDVSHEDPEVKFNWYVDGVEVHNAKTKPREEQYNSTYRVVSVLTVLHQDWLNGKEYKCKVSNKALGAPIEKTISKAKGQPREPQVCTLPPSRDELTKNQVSLSCAVKGFYPSDIAVEWESNGQPENNYKTTPPVLDSDGSFFLVSKLTVDKSRWQQGNVFSCSVMHEALHNHYTQKSLSLSP
light 1: EVQLLESGGGLVQPGGSLRLSCAASGFTFSSYAMSWVRQAPGKGLEWVSAIIGSGASTYYADSVKGRFTISRDNSKNTLYLQMNSLRAEDTAVYYCAKGWFGGFNYWGQGTLVTVSSASVAAPSVFIFPPSDEQLKSGTASVVCLLNNFYPREAKVQWKVDNALQSGNSQESVTEQDSKDSTYSLSSTLTLSKADYEKHKVYACEVTHQGLSSPVTKSFNRGEC
heavy 2: not shown
light 2: not shown
Take B6: the “EC50 killing (nM), TCB-mediated killing” value in test [3] is 1.11 nM.

B7: FAP (4B9) - CD28 (CD28(SA)_Variant 15) 1+1 (bispecific antibody, human IgG1, kappa, L234A L235A)
heavy 1: EIVLTQSPGTLSLSPGERATLSCRASQSVTSSYLAWYQQKPGQAPRLLINVGSRRATGIPDRFSGSGSGTDFTLTISRLEPEDFAVYYCQQGIMLPPTFGQGTKVEIKSSASTKGPSVFPLAPSSKSTSGGTAALGCLVKDYFPEPVTVSWNSGALTSGVHTFPAVLQSSGLYSLSSVVTVPSSSLGTQTYICNVNHKPSNTKVDKKVEPKSCDKTHTCPPCPAPEAAGGPSVFLFPPKPKDTLMISRTPEVTCVVVDVSHEDPEVKFNWYVDGVEVHNAKTKPREEQYNSTYRVVSVLTVLHQDWLNGKEYKCKVSNKALGAPIEKTISKAKGQPREPQVCTLPPSRDELTKNQVSLSCAVKGFYPSDIAVEWESNGQPENNYKTTPPVLDSDGSFFLVSKLTVDKSRWQQGNVFSCSVMHEALHNHYTQKSLSLSP
light 1: EVQLLESGGGLVQPGGSLRLSCAASGFTFSSYAMSWVRQAPGKGLEWVSAIIGSGASTYYADSVKGRFTISRDNSKNTLYLQMNSLRAEDTAVYYCAKGWFGGFNYWGQGTLVTVSSASVAAPSVFIFPPSDEQLKSGTASVVCLLNNFYPREAKVQWKVDNALQSGNSQESVTEQDSKDSTYSLSSTLTLSKADYEKHKVYACEVTHQGLSSPVTKSFNRGEC
heavy 2: not shown
light 2: not shown
As to B7, in test [3], the “EC50 killing (nM), TCB-mediated killing” value came to 1.79 nM.

Values taken from patent US20200199234A1 (published 2020).
